Test results published in the Human Domainome abundance scans (Beltran et al. 2025).
± gives the uncertainty stated by the source.

B1: Zinc finger homeobox protein 4, residues 2086 to 2141; numbered along this chain, Q86UP3 (parent)
chain: RPRTRITDDQLKILRAYFDINNSPSEEQIQEMAEKSGLSQKVIKHWFRNTLFKERQ

Variants of: B1
Assay: abundance fitness (aPCA) (normalised: wild type 0, dead -1); higher = more abundant; growth selection in yeast, the domain comes from the species named
Conditions: Homo sapiens

Point of comparison: RPRTRITDDQLKILMAYFDINNSPSEEQIQEMAEKSGLSQKVIKHWFRNTLFKERQ [R15M], abundance fitness 0.138 ± 0.093. Against it:
- RPRTRITDDQNKILRAYFDINNSPSEEQIQEMAEKSGLSQKVIKHWFRNTLFKERQ [L11N] — within error, -0.024 ± 0.17
- RPRTRITDDQAKILRAYFDINNSPSEEQIQEMAEKSGLSQKVIKHWFRNTLFKERQ [L11A] — lower, -0.193 ± 0.069
- RPRTRITDDQTKILRAYFDINNSPSEEQIQEMAEKSGLSQKVIKHWFRNTLFKERQ [L11T] — lower, -0.115 ± 0.087
- RPRTRITDDQKKILRAYFDINNSPSEEQIQEMAEKSGLSQKVIKHWFRNTLFKERQ [L11K] — the same, 0.138 ± 0.11
- RPRTRITDDQMKILRAYFDINNSPSEEQIQEMAEKSGLSQKVIKHWFRNTLFKERQ [L11M] — lower, -0.148 ± 0.11
- RPRTRITDDQQKILRAYFDINNSPSEEQIQEMAEKSGLSQKVIKHWFRNTLFKERQ [L11Q] — lower, -0.147 ± 0.1
- RPRTRITDDQCKILRAYFDINNSPSEEQIQEMAEKSGLSQKVIKHWFRNTLFKERQ [L11C] — lower, -0.392 ± 0.096
- RPRTRITDDQDKILRAYFDINNSPSEEQIQEMAEKSGLSQKVIKHWFRNTLFKERQ [L11D] — within error, -0.069 ± 0.13
- RPRTRITDDQGKILRAYFDINNSPSEEQIQEMAEKSGLSQKVIKHWFRNTLFKERQ [L11G] — lower, -0.172 ± 0.065
- RPRTRITDDQPKILRAYFDINNSPSEEQIQEMAEKSGLSQKVIKHWFRNTLFKERQ [L11P] — lower, -0.769 ± 0.11
- RPRTRITDDQEKILRAYFDINNSPSEEQIQEMAEKSGLSQKVIKHWFRNTLFKERQ [L11E] — within error, 0.059 ± 0.097
- RPRTRITDDQYKILRAYFDINNSPSEEQIQEMAEKSGLSQKVIKHWFRNTLFKERQ [L11Y] — within error, 0.155 ± 0.13
- RPRTRITDDQVKILRAYFDINNSPSEEQIQEMAEKSGLSQKVIKHWFRNTLFKERQ [L11V] — lower, -0.18 ± 0.074
- RPRTRITDDQSKILRAYFDINNSPSEEQIQEMAEKSGLSQKVIKHWFRNTLFKERQ [L11S] — lower, -0.043 ± 0.073
- RPRTRITDDQIKILRAYFDINNSPSEEQIQEMAEKSGLSQKVIKHWFRNTLFKERQ [L11I] — lower, -0.14 ± 0.13
- RPRTRITDDQRKILRAYFDINNSPSEEQIQEMAEKSGLSQKVIKHWFRNTLFKERQ [L11R] — lower, -0.026 ± 0.069
- RPRTRITDDQHKILRAYFDINNSPSEEQIQEMAEKSGLSQKVIKHWFRNTLFKERQ [L11H] — lower, -0.165 ± 0.11
- RPRTRITDDQWKILRAYFDINNSPSEEQIQEMAEKSGLSQKVIKHWFRNTLFKERQ [L11W] — lower, -0.205 ± 0.077
- RPRTRITDDQFKILRAYFDINNSPSEEQIQEMAEKSGLSQKVIKHWFRNTLFKERQ [L11F] — lower, -0.134 ± 0.086
- RPRTRITDDQLCILRAYFDINNSPSEEQIQEMAEKSGLSQKVIKHWFRNTLFKERQ [K12C] — lower, -0.112 ± 0.099
- RPRTRITDDQLVILRAYFDINNSPSEEQIQEMAEKSGLSQKVIKHWFRNTLFKERQ [K12V] — lower, -0.045 ± 0.075
- RPRTRITDDQLMILRAYFDINNSPSEEQIQEMAEKSGLSQKVIKHWFRNTLFKERQ [K12M] — lower, -0.071 ± 0.091
- RPRTRITDDQLLILRAYFDINNSPSEEQIQEMAEKSGLSQKVIKHWFRNTLFKERQ [K12L] — within error, 0.005 ± 0.073
- RPRTRITDDQLAILRAYFDINNSPSEEQIQEMAEKSGLSQKVIKHWFRNTLFKERQ [K12A] — lower, -0.137 ± 0.084
- RPRTRITDDQLQILRAYFDINNSPSEEQIQEMAEKSGLSQKVIKHWFRNTLFKERQ [K12Q] — within error, -0.029 ± 0.11
- RPRTRITDDQLSILRAYFDINNSPSEEQIQEMAEKSGLSQKVIKHWFRNTLFKERQ [K12S] — lower, -0.09 ± 0.081
- RPRTRITDDQLPILRAYFDINNSPSEEQIQEMAEKSGLSQKVIKHWFRNTLFKERQ [K12P] — lower, -0.16 ± 0.093
- RPRTRITDDQLHILRAYFDINNSPSEEQIQEMAEKSGLSQKVIKHWFRNTLFKERQ [K12H] — lower, -0.34 ± 0.13
- RPRTRITDDQLIILRAYFDINNSPSEEQIQEMAEKSGLSQKVIKHWFRNTLFKERQ [K12I] — within error, -0.094 ± 0.15
- RPRTRITDDQLRILRAYFDINNSPSEEQIQEMAEKSGLSQKVIKHWFRNTLFKERQ [K12R] — lower, -0.039 ± 0.065
- RPRTRITDDQLDILRAYFDINNSPSEEQIQEMAEKSGLSQKVIKHWFRNTLFKERQ [K12D] — lower, -0.212 ± 0.12
- RPRTRITDDQLNILRAYFDINNSPSEEQIQEMAEKSGLSQKVIKHWFRNTLFKERQ [K12N] — within error, -0.007 ± 0.11
- RPRTRITDDQLGILRAYFDINNSPSEEQIQEMAEKSGLSQKVIKHWFRNTLFKERQ [K12G] — lower, -0.146 ± 0.068
- RPRTRITDDQLYILRAYFDINNSPSEEQIQEMAEKSGLSQKVIKHWFRNTLFKERQ [K12Y] — lower, -0.422 ± 0.13
- RPRTRITDDQLEILRAYFDINNSPSEEQIQEMAEKSGLSQKVIKHWFRNTLFKERQ [K12E] — lower, -0.076 ± 0.1
- RPRTRITDDQLWILRAYFDINNSPSEEQIQEMAEKSGLSQKVIKHWFRNTLFKERQ [K12W] — lower, -0.379 ± 0.082
- RPRTRITDDQLKILHAYFDINNSPSEEQIQEMAEKSGLSQKVIKHWFRNTLFKERQ [R15H] — lower, -0.337 ± 0.15
- RPRTRITDDQLKILIAYFDINNSPSEEQIQEMAEKSGLSQKVIKHWFRNTLFKERQ [R15I] — lower, -0.296 ± 0.16
- RPRTRITDDQLKILNAYFDINNSPSEEQIQEMAEKSGLSQKVIKHWFRNTLFKERQ [R15N] — within error, -0.07 ± 0.15
- RPRTRITDDQLKILDAYFDINNSPSEEQIQEMAEKSGLSQKVIKHWFRNTLFKERQ [R15D] — lower, -0.168 ± 0.11
- RPRTRITDDQLKILCAYFDINNSPSEEQIQEMAEKSGLSQKVIKHWFRNTLFKERQ [R15C] — lower, -0.414 ± 0.13
- RPRTRITDDQLKILEAYFDINNSPSEEQIQEMAEKSGLSQKVIKHWFRNTLFKERQ [R15E] — lower, -0.098 ± 0.089
- RPRTRITDDQLKILLAYFDINNSPSEEQIQEMAEKSGLSQKVIKHWFRNTLFKERQ [R15L] — lower, -0.081 ± 0.072
- RPRTRITDDQLKILFAYFDINNSPSEEQIQEMAEKSGLSQKVIKHWFRNTLFKERQ [R15F] — lower, -0.245 ± 0.16
- RPRTRITDDQLKILGAYFDINNSPSEEQIQEMAEKSGLSQKVIKHWFRNTLFKERQ [R15G] — lower, -0.093 ± 0.07
- RPRTRITDDQLKILAAYFDINNSPSEEQIQEMAEKSGLSQKVIKHWFRNTLFKERQ [R15A] — lower, -0.215 ± 0.076
